Experimental findings from patent publication US20090041768A1 (published 2009) are described below.

By EC50 is commonly meant the concentration needed to bring the measured effect to its halfway point. Low readings indicate a more potent agent, high ones a less potent agent.

The test has as its target FcRn. The test can be described thus: Biacore FcRn binding. Background: Surface plasmon resonance follows binding to a sensor surface in real time, without labels.

FcRn, sequence (chain, as listed by the source, chain 1 of 2): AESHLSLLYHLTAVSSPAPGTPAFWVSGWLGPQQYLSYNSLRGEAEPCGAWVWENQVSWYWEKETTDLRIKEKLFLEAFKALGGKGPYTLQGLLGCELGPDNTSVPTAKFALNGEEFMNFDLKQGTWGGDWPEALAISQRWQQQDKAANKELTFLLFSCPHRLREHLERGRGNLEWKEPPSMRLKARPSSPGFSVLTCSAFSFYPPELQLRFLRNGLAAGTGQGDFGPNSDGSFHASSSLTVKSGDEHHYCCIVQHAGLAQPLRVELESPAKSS
FcRn, sequence (chain, as listed by the source, chain 2 of 2): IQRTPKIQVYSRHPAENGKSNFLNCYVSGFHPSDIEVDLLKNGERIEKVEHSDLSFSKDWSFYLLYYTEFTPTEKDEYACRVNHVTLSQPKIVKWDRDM

B1: Fc-loop TN8-19-07 (clone #6951) (Fc fusion)
chain: MDKTHTCPPCPAPELLGGPSVFLFPPKPKDTLMISRTPEVTCVVVDVSHEDPEVKFNWYVDGVEVHNAKTKPREEQYNSTYRVVSVLTVLHQDWLNGKEYKCKVSNKALPAPIEKTISKAKGQPREPQVYTLPPSRDELGGLADHGQCIRWPWMCPPEGWEGGTKNQVSLTCLVKGFYPSDIAVEWESNGQPENNYKTTPPVLDSDGSFFLYSKLTVDKSRWQQGNVFSCSVMHEALHNHYTQKSLSLSPGK
notes: also called Fc-loop-myo7; myostatin loop peptibody
The molecule B1 gave an EC50 of around 680 nM.
